Measurements from patent US6416957, “Method for modulating process mediated by farnesoid activated receptors” (The Salk Institute for Biological Studies).

Target: FAR (FXR)-RXRalpha heterodimer (Rattus norvegicus / Homo sapiens, UniProt Q62735;P19793 Q62735:1-469,P19793:1-462)
Assay: cell_activity; 50 uM JH III, CV-1 cells; 17-fold JH III, 76-fold LG69, 212-fold both in p89; parental MTV reporter lacking EcREs not activated
Conditions: tags: CMV-driven expression in CV-1 cells
Method: Thus, with reference to FIG. 5A, CV-1 cells were transiently transfected with hsp27-EcRE×5 MTV-luciferase alone (−) or with expression vectors for rat FAR and/or human RXRα. Reporter activity was assayed after treating cells with or without 50 μM JH III.

FAR (FXR)-RXRalpha heterodimer, sequence (Q62735 whole entry, chain 1 of 2): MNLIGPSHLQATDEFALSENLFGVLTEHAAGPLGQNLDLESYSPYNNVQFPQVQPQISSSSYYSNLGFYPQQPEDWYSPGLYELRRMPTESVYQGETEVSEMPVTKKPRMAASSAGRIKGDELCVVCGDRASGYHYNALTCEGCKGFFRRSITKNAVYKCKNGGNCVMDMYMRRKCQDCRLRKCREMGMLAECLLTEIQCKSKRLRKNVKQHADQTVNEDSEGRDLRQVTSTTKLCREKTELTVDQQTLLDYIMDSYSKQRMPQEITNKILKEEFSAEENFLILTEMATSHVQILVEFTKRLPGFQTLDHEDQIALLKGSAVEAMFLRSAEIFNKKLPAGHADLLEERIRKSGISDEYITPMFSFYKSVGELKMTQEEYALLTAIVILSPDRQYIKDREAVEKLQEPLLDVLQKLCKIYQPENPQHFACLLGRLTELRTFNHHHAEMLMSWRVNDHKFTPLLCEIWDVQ
FAR (FXR)-RXRalpha heterodimer, sequence (P19793 whole entry, chain 2 of 2): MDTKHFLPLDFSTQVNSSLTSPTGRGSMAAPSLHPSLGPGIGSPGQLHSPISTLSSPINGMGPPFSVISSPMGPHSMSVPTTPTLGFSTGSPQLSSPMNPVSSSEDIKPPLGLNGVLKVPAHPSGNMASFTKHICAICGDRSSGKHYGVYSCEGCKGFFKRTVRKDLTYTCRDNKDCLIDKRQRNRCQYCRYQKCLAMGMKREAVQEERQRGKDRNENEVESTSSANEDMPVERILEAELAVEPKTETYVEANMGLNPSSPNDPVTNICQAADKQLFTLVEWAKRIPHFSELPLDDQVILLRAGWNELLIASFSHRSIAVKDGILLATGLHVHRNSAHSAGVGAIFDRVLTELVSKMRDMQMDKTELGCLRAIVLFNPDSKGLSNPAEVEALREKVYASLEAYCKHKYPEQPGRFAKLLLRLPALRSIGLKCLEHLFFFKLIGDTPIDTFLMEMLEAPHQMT

B1: hsp27-EcREx5 MTV-luciferase reporter (dsDNA)
DNA 1: GGTTCAATGCACT
DNA 2: AGTGCATTGAACC
Binder B1 has an activity of 10 fold.
